Assay results reported in US20070264253A1 (Eli Lilly, published 2007).

Experiments:
[1] = molecular target: T1, EGFR-AP fusion protein (UniProt P00533 25-645); test: BIAcore SPR, EGFR-AP immobilised on the chip
T1 construct: Immobilised on the BIAcore sensor chip; Neither the species nor the residues of the EGFR part are stated
Procedure: (§1) Sensorgrams were obtained at each concentration and were analyzed with BIA Evaluation 2.0, a program to determine the rate constants, kₒₙ and koff. The affinity constant, Kd, was calculated from the ratio of rate constants, koff/kₒₙ.

[2] = molecular target: T1, EGFR-AP fusion protein; test: BIAcore SPR, EGFR-AP immobilised on the chip; koff/kon
Procedure: as §1

| Binder | koff [1] | kon [1] | Kd [2] |
| --- | --- | --- | --- |
| IMC-11F8 Fab (Fab, V domains shown) VH: QVQLQESGPGLVKPSQTLSLTCTVSGGSISSGDYYWSWIRQPPGKGLEWIGYIYYSGSTDYNPSLKSRVTMSVDTSKNQFSLKVNSVTAADTAVYYCARVSIFGVGTFDYWGQGTLVTVSS VL: EIVMTQSPATLSLSPGERATLSCRASQSVSSYLAWYQQKPGQAPRLLIYDASNRATGIPARFSGSGSGTDFTLTISSLEPEDFAVYYCHQYGSTPLTFGGGTKAEIK | 0.00367 s⁻¹ | 2.29e+06 M⁻¹ s⁻¹ | 1.78 nM |
| IMC-11F8 (full human IgG1 anti-EGFR antibody) (antibody, V domains shown, also called IMC-C11F8; 11F8 monoclonal antibody) VH: QVQLQESGPGLVKPSQTLSLTCTVSGGSISSGDYYWSWIRQPPGKGLEWIGYIYYSGSTDYNPSLKSRVTMSVDTSKNQFSLKVNSVTAADTAVYYCARVSIFGVGTFDYWGQGTLVTVSS VL: EIVMTQSPATLSLSPGERATLSCRASQSVSSYLAWYQQKPGQAPRLLIYDASNRATGIPARFSGSGSGTDFTLTISSLEPEDFAVYYCHQYGSTPLTFGGGTKAEIK | 0.00058 s⁻¹ | 1.86e+06 M⁻¹ s⁻¹ | 0.32 nM |
